Patent US9371393B2, “Class I anti-CEA antibodies and uses thereof” (Immunomedics, Inc., priority 2009, dated 2016)

T1: ^125I-CEA (Homo sapiens, UniProt P06731)
T1 construct: purchased ROCHE
T1 sequence (P06731 35-676): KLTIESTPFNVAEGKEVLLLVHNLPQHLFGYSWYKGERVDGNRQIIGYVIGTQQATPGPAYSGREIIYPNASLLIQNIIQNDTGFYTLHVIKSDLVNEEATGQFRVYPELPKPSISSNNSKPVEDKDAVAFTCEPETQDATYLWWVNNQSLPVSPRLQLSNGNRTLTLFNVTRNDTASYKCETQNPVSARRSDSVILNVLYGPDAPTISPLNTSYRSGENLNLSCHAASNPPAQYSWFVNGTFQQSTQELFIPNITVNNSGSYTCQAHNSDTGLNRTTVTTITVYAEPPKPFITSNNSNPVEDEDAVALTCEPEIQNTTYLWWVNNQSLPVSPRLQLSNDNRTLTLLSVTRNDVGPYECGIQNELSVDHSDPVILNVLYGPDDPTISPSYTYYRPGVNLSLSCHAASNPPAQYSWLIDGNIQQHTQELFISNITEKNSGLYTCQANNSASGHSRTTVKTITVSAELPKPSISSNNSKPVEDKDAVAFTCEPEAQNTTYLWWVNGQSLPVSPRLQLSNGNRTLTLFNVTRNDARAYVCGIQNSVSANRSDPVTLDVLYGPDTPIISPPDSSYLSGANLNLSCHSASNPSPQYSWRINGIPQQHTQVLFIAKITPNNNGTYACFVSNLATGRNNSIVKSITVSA

B1: MN-15: murine Class I anti-CEA MAb, IgG1 kappa, binds A1B1 domain of CEACAM5 and CEACAM6 (antibody, V domains shown)
VL: DIQLTQSPAIMSASPGEKVTMTCSASSRVSYIHWYQQKSGTSPKRWIYGTSTLASGVPARFSGSGSGTSYSLTISSMEAEDAATYYCQQWSYNPPTFGAGTKLELKR
VH: EVRLVESGGGLVQGPGSLRLSCAASGFALTDYYMSWVRQSPGKTLEWLGFIANKANGHTTDYSPSVKGRFTISRDNSQTILYLQMNTLRTEDSATYYCARDMGIRWNFDVWGQGTTVTVSS
B2: MN-15 Fab′: monovalent Fab′ fragment of murine MN-15 (antibody, V domains shown)
VL: B1 VL
VH: B1 VH

Assays:
^125I-CEA = target: T1, ^125I-CEA; test: ROCHE 125I-CEA radioimmunoassay (RIA); format: binding; conditions: 0.01 and 0.10 M NH4 acetate buffer
Description: Hybridoma supernatants were screened for CEA reactive antibody by the ROCHE® ^125I-CEA radioimmunoassay (RIA) in 0.01 and 0.10 M NH4 acetate buffer. Positive clones were recloned. The granulocyte reactivity of CEA-reactive MAb was determined by whole-blood indirect fluorescent flow cytometric analysis (Sharkey et al. Cancer Res., 1990, 50:2823-31). Two MAb with properties similar to those of NP-2 and NP-3, designated MN-2 and MN-6, were selected for additional development.

ZR75-30 cells = test: Collagen-based invasion assay, ZR75-30; format: cell-based, human; conditions: 10% FBS chemoattractant, 72-hour incubation
Description: Collagen-based invasion assay—The assay was done using CHEMICON® Kit (#ECM551, MILLIPORE®, Billerica, Mass.). Tumor cells at 80% confluence and were serum-starved for 18 to 24 hours before the assay was used. Cells were harvested with 5 mol of 2 mmol/L EDTA/PBS per 100-mm dish and incubated at 37° C. for 5 to 15 minutes. Cells were collected into 10 to 20 mol of quenching medium (serum-free DMEM containing 5% BSA) to inactivate trypsin/EDTA from the harvesting buffer. Cells were pelleted, resuspended in quenching medium (1×10^6 cells/mol), and appropriate antibody Fabs were added to individual cell aliquots. Cell invasion potential was determined as follows. Baseline invasion and invasion in the presence of a chemoattractant (10% FBS) were measured after a 72-hour incubation period at 37° C. in a 5% CO2 incubator. The bottom side of the collagen-coated polycarbonate membrane insert of the invasion chamber was placed in 400 μL of cell stain for 20 minutes at room temperature and washed. The dye was extracted and transferred into a 96-well microtiter plate for colorimetric measurements (A560 nm).

Molecule | ion sensitivity of CEA binding / reactivity with ion-sensitive CEA determinant (^125I-CEA) | reduction in cell invasion (ZR75-30 cells)
B1 | binding to epitopes of the ion-sensitive CEA determinant | 
B2 |  | 49%
